From patent US6476188
Residue numbers refer to the chain shown, from its start.

Key:
[1] = target: mouse PERIOD1 (mPER1), in vitro translated, 35S-methionine-labeled, O35973
[2] = target: mouse PERIOD2 (mPER2), in vitro translated, 35S-methionine-labeled, O54943
[3] = target: phosvitin (Sigma #P-1253)
[4] = target: dephosphorylated α-casein (Sigma #C-8032)
[5] = target: PERIOD (PER) protein, Drosophila, expressed in S2 cells from hs-per, P07663

mouse PERIOD2 (mPER2), in vitro translated, 35S-methionine-labeled, O54943, sequence (O54943 whole entry, looked up): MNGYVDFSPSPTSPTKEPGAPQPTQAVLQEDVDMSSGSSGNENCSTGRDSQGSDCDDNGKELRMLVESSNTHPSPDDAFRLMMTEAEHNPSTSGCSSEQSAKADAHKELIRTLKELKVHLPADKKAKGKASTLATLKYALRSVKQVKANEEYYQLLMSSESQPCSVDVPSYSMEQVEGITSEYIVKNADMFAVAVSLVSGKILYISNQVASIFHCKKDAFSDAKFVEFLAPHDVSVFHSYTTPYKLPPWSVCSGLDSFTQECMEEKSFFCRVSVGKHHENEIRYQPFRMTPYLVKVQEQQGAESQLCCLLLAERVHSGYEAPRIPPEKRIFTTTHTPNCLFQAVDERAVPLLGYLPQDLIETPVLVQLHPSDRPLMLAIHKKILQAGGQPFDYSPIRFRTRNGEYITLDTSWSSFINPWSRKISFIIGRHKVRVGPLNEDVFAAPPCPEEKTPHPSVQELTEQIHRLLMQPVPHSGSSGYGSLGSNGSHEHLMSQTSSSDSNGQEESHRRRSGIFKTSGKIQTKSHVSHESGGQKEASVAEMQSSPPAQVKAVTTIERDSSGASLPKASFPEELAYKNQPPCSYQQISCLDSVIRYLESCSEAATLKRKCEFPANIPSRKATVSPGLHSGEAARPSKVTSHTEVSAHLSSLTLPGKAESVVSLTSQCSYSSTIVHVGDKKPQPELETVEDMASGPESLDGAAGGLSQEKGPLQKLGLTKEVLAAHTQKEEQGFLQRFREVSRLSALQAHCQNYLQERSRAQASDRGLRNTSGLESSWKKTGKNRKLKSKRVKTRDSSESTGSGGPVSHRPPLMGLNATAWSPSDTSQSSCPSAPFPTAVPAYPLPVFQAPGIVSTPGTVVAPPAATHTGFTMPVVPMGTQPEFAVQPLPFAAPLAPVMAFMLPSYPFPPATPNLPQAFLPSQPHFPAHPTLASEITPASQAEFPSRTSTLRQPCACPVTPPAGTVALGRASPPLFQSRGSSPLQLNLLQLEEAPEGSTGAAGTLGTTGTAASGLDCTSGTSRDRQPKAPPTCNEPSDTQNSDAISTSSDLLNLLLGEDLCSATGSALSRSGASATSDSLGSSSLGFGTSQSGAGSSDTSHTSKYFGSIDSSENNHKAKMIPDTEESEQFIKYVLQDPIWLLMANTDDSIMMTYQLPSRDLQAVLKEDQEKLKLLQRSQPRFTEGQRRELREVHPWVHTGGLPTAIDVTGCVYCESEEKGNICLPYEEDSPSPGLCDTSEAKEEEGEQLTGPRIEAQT
mouse PERIOD1 (mPER1), in vitro translated, 35S-methionine-labeled, O35973, sequence (O35973 whole entry, looked up): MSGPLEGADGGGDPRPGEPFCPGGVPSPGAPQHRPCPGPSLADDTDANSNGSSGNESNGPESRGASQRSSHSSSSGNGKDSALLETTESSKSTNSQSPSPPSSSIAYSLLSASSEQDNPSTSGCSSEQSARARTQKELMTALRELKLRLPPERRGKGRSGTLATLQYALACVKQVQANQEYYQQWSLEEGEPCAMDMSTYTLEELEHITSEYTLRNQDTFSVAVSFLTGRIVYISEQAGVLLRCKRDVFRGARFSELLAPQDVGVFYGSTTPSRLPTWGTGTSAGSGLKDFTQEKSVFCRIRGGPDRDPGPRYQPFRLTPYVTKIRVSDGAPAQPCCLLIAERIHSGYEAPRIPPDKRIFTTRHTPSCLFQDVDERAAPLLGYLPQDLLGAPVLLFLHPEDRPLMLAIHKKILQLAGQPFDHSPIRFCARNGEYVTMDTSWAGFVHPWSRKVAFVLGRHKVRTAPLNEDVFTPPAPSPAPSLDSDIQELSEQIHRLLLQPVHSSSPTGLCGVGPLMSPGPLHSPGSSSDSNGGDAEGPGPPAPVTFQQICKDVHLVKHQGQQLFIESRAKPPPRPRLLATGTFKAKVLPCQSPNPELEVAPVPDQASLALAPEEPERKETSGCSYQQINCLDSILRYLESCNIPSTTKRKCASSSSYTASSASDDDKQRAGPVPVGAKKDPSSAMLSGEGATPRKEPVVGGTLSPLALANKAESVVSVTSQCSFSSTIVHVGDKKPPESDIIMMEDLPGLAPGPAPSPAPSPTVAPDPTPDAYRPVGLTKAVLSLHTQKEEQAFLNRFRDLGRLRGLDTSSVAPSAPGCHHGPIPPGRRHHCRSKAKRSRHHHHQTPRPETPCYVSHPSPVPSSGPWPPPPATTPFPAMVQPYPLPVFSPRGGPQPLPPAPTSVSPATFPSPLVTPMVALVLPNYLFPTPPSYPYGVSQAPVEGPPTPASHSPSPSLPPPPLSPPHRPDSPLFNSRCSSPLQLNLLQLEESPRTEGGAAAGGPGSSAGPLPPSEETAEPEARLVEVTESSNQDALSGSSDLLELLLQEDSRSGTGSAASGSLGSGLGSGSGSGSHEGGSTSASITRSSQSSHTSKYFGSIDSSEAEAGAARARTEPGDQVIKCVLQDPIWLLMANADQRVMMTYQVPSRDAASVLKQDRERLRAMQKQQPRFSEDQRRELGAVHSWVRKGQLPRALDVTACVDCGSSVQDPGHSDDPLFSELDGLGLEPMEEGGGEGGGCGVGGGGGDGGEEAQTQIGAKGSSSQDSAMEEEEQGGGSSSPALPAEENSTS

B1: recombinant tau mutant hamster CK1ε (Arg178Cys) with N-terminal S•Tag and His-Tag fusions, captured on S-protein agarose (protein)
chain: MELRVGNKYRLGRKIGSGSFGDIYLGANIASGEEVAIKLECVKTKHPQLHIESKFYKMMQGGVGIPSIKWCGAEGDYNVMVMELLGPSLEDLFNFCSRKFSLKTVLLLADQMISRIEYIHSKNFIHRDVKPDNFLMGLGKKGNLVYIIDFGLAKKYRDARTHQHIPYRENKNLTGTACYASINTHLGIEQSRRDDLESLGYVLMYFNLGSLPWQGLKAATKRQKYERISEKKMSTPIEVLCKGYPSEFSTYLNFCRSLRFDDKPDYSYLRQLFRNLFHRQGFSYDYVFDWNMLKFGAARNPEDVDRERREHEREERMGQLRGSATRALPPGPPTGATANRLRSAAEPVASTPASRIQQAGNTSPRAISRADRERKVSMRLHRGAPANVSSSDLTGRQEVSRISASQTSVPFDHLGK
affinity kinase assay, phosphorylation of bound substrate [1]: there is a clear attenuation in phosphorylation of mPER1 and mPER2 by the tau mutant enzyme as compared to wild type CK1ε
affinity kinase assay, phosphorylation of bound substrate [2]: there is a clear attenuation in phosphorylation of mPER1 and mPER2 by the tau mutant enzyme as compared to wild type CK1ε
Km [3]: a Km of 29.8 µM
Vmax [3]: a Vmax of 52.5 µmoles/µg/5 minutes
fold reduction in Vmax against wild-type [3]: the tau mutation causes an eight-fold reduction in the Vmax of CK1ε

B2: recombinant wild-type hamster CK1ε with N-terminal S•Tag and His-Tag fusions, captured on S-protein agarose (protein)
chain: B1 chain with C178R
32P signal intensity of phosphorylated substrate, wild-type relative to tau enzyme [4]: The wild-type CK1ε kinase produces an 8-fold and 4-fold greater signal intensity, for phosvitin and α-casein respectively, relative to that produced by the tau enzyme.
affinity kinase assay, phosphorylation of bound substrate [1]: this affinity kinase assay demonstrates that CK1ε phosphorylates mammalian PERIOD proteins
affinity kinase assay, phosphorylation of bound substrate [2]: this affinity kinase assay demonstrates that CK1ε phosphorylates mammalian PERIOD proteins
32P signal intensity of phosphorylated substrate, wild-type relative to tau enzyme [3]: The wild-type CK1ε kinase produces an 8-fold and 4-fold greater signal intensity, for phosvitin and α-casein respectively, relative to that produced by the tau enzyme.
Km [3]: the Km is 55.6 µM
Vmax [3]: the Vmax is 400 µmoles/µg/5 minutes

B3: DOUBLETIME protein (DBT), Drosophila, in vitro translated from dbt cDNA P12, 35S-labeled (protein)
chain: MELRVGNKYRLGRKIGSGSFGDIYLGTTINTGEEVAIKLECIRTKHPQLHIESKFYKTMQGGIGIPRIIWCGSEGDYNVMVMELLGPSLEDLFNFCSRRFSLKTVLLLADQMISRIDYIHSRDFIHRDIKPDNFLMGLGKKGNLVYIIDFGLAKKFRDARSLKHIPYRENKNLTGTARYASINTHLGIEQSRRDDLESLGYVLMYFNLGALPWQGLKAANKRQKYERISEKKLSTSIVVLCKGFPSEFVNYLNFCRQMHFDQRPDYCHLRKLFRNLFHRLGFTYDYVFDWNLLKFGGPRNPQAIQQAQDGADGQAGHDAVAAAAAVAAAAAASSHQQQQHKVNAALGGGGGSRAQQQLQGGQTLAMLGGNGGGNGSQLIGGNGLNMDDSMAATNSSRPPYDTPERRPSIRMRQGGGGGGGGVGVGGMQSGGGGGGVGNAK
phosphorylation of PER in vitro [5]: the formation of a PER/DBT complex leads to DBT-dependent phosphorylation of PER in vitro
